Measurements reported in patent publication US6667388B2, “Peptide inhibitor of MMP activity and angiogenesis” (Beth Israel Deaconess Medical Center, priority 2001, dated 2003).

Assays:
proMMP-9 = target: T1, proMMP-9 (Homo sapiens, UniProt P14780); assay: MMP enzymatic assay with [3H]-labeled gelatin substrate, basal activity of proMMP-9; assay type: biochemical; details: peptide tested as MBP fusion protein; proMMP9 preincubated at 37° C. for 2 hours with 10 or 100 ng, then [3H]-labeled substrate for 1 hour; FIG. 2
T1 construct: purchased CALBIOCHEM
Protocol: FIG. 2: is a bar graph depicting the inhibitory effect of the peptide of the invention on MMP-9 activity in an in vitro assay. ProMMP9 was preincubated at 37° C. for 2 hours with 10 or 100 ng of recombinant MBP-peptide fusion protein (MBP-29) followed by addition of [^3H]-labeled substrate for 1 hour.
(§1) For expression of the peptide as a fusion protein for subsequent use in MMP-9 inhibition assays, the cDNA encoding the peptide in SEQ ID NO:2 was cloned into the prokaryotic expression vector pMAL.c2× (NEN). The peptide was expressed as a fusion with the maltose binding protein (MBP) in the bacterial strain, BL21-codon plus (STRATAGENE). The bacteria were transformed using any standard method known in the art and grown at 37° C., as recommended by the supplier. The bacterial culture was supplemented with IPTG (isopropyl B-D-thiogalacto pyranoside) to a final concentration of 0.3 mM and grown further. The fusion protein with MBP was subsequently extracted from the bacterial cells using purified amylose resin. ProMMP (CALBIOCHEM) was used for assessing functionality of the bacterially expressed MBP-fusion peptide.
(§2) The enzymatic assays were performed using [3H]-labeled gelatin substrate. […] The radioactivity in the TCA soluble fraction was determined by a β-scintillation counter which gives a measure of the enzymatic activity of MMP-9.

[1] = target: T2, proMMP-9 activated by MMP3 (Homo sapiens, UniProt P14780); assay: MMP enzymatic assay with [3H]-labeled gelatin substrate, proMMP-9 activated by MMP3; assay type: biochemical; details: peptide tested as MBP fusion protein; proMMP-9 activated with MBP-MMP3, incubated for 2 hours; FIG. 3
T2 construct: purchased CALBIOCHEM
Protocol: FIG. 3: is a bar graph depicting the inhibitory effect of the peptide of the invention on activated MMP-9 in an in vitro assay. ProMMP-9 activated with MBP-MMP3 was incubated for 2 hours with control protein or recombinant MBP-peptide fusion protein (MBP-29).
as §1, §2

mouse TSP2-TSR = target: T3, mouse TSP2-TSR (Mus musculus, UniProt Q03350); assay: Yeast two-hybrid screen with TSP2-TSR as bait; assay type: binding; details: transactivation of reporter genes HIS3 and lacZ
T3 construct: The TSP-1 and TSP-2 TSR regions corresponded to nucleotides 1342-1861 and 1356-1876 of TSP-1 and TSP-2 respectively; expressed in transfected cells; host or cells: S. cerevisiae strain Y190 (bait vector pAS2-2)
Protocol: Generally, the nomenclature and the laboratory procedures in recombinant DNA technology described here are well known to those skilled in the art and are commonly employed in the art. The peptide of SEQ ID NO:1 was isolated by the yeast two-hybrid system using the MATCHMAKER two-hybrid system from CLONTECH.
The S. cerevisiae strain Y190 (CLONTECH, CA) was used for cDNA library screening and for direct testing of protein—protein interactions. The cells were grown at 30° C. either in rich YPD media or minimal media with the appropriate amino-acid supplements. The minimal media were SD-Trp, in which tryptophan was omitted; SD-Leu, in which leucine was omitted; SD-Trp, Leu, in which both tryptophan and leucine were omitted, and SD-Trp, leu, His, in which tryptophan, leucne and histidine were lacking.
The constructs for use in the yeast two-hybrid system were based on the GAL4 two-hybrid system 2, which includes the cloning vectors pAS2-1 and pACT2 (CLONTECH, CA). […] A bait vector with a second reading frame, designated pAS2-2, was constructed by linearizing the pAS2-1 with NcoI and filling-in using T4 DNA polymerase. […]
During the screen, the interaction between the bait (TSP1-TSR or TSP2-TSR) and the prey (NIH3T3 translational library) were assessed by their ability to transactivate the reporter genes HIS3 and lacZ. […]

T2 sequence (P14780 107-707 limits assumed): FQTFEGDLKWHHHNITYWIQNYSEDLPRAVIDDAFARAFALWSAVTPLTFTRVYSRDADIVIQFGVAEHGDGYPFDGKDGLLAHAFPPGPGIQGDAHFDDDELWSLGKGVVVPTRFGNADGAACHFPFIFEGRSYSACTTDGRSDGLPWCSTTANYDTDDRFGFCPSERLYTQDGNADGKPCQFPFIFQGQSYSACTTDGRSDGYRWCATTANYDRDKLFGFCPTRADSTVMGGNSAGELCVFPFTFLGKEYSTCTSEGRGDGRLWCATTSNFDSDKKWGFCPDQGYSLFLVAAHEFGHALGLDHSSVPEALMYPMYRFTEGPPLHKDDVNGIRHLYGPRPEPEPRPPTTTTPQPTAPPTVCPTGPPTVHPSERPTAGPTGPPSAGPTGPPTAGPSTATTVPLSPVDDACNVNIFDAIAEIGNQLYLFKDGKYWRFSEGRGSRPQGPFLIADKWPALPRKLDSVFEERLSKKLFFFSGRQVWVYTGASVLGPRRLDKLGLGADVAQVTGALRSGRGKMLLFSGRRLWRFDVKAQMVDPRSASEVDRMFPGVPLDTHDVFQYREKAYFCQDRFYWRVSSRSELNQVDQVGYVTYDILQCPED
T1 sequence (P14780 20-707 limits assumed): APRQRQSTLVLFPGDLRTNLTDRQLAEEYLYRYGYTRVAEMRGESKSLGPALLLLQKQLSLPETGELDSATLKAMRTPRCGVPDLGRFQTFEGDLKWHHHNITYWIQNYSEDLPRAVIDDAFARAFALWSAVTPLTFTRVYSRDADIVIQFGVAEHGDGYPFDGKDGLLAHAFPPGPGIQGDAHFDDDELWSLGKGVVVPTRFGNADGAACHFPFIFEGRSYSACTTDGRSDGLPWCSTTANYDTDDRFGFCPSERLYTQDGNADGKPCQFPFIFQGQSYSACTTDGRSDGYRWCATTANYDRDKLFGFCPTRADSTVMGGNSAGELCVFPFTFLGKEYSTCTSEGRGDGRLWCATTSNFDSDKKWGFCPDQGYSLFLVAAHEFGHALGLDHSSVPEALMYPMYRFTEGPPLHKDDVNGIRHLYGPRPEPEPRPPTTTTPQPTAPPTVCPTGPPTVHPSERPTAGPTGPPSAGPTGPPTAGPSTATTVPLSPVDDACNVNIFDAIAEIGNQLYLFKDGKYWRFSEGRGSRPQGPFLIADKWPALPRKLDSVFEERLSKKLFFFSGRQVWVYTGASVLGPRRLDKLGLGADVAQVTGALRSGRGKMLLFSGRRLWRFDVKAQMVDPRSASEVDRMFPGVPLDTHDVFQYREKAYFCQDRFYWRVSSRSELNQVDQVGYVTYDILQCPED
T3 sequence (Q03350 381-552): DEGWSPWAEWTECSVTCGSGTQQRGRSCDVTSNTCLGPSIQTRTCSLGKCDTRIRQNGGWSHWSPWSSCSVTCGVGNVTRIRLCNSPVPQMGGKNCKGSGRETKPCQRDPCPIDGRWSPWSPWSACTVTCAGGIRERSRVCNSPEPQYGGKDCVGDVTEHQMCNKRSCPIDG

Sequence: APWNCCPVSCCGNCCFFRAL QSCPQG (APWNCCPVSCCGNCCFFRALQSCPQG; OTHER INFORMATION: Peptide Inhibitor of MMP- 9 Activity and Angiogenesis) [peptide of SEQ ID NO:1]
- inhibition of MMP-9 activity (basal activity of proMMP-9) (proMMP-9): inhibited MMP-9 activity in a dose-dependent manner
- inhibition of MMP-3 dependent activation of MMP (activated MMP-9) [1]: inhibited in a dose-dependent manner
- interaction with TSP-2 (mouse TSP2-TSR): isolated as an interactor of TSP-2
